Assay [1] has as its target FUS^N-FusionRed-Cry2olig-VioE. As to the kind of experiment: cell-based or functional assay.
A further assay has as its target FUS^N-Citrine-PixE-VioE. Put plainly: cell-based or functional assay.

Sequence of FUS^N-FusionRed-Cry2olig-VioE (Q96524 other isoform, or with tags, fused parts or gaps): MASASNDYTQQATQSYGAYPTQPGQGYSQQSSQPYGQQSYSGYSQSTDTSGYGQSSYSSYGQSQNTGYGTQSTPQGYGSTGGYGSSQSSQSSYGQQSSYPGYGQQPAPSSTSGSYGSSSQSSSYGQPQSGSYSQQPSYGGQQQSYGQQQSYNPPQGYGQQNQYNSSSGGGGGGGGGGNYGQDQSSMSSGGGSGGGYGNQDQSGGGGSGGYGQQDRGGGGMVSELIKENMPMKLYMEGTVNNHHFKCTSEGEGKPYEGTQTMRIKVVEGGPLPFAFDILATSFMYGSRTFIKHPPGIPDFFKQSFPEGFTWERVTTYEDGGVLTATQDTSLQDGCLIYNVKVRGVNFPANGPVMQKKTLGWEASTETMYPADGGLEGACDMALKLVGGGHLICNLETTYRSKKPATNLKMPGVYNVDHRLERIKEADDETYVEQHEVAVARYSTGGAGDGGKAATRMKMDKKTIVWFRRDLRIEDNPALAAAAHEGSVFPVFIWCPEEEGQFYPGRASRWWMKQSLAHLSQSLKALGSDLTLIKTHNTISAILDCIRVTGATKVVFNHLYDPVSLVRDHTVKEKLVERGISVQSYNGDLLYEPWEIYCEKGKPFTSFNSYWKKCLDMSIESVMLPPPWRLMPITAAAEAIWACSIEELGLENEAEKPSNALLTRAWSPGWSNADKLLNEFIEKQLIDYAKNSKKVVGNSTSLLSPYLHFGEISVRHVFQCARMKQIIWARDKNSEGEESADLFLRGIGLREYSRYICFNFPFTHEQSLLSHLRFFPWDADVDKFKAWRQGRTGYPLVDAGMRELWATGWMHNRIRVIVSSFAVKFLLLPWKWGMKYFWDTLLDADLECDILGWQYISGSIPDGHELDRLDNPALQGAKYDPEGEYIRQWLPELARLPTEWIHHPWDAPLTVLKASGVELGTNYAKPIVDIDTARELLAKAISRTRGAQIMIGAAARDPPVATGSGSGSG
Sequence of VioC-FUS^N-Citrine-Cry2olig (Q9S3U9 1-429, tags or fused parts left off): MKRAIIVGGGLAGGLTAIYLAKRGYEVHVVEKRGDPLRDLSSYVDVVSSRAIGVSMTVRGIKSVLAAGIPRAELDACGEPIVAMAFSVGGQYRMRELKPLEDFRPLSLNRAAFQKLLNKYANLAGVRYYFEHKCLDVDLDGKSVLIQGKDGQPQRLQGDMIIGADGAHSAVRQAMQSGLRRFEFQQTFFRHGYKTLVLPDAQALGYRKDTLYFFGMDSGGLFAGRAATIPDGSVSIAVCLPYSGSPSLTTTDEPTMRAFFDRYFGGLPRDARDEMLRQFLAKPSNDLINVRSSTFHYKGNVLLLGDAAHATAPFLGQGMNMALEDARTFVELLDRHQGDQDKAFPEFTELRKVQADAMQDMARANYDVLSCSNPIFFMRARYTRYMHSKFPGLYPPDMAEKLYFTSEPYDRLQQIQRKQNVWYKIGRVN
Sequence of FUS^N-Citrine-Cry2olig-VioC (P35637 1-214, tags or fused parts left off): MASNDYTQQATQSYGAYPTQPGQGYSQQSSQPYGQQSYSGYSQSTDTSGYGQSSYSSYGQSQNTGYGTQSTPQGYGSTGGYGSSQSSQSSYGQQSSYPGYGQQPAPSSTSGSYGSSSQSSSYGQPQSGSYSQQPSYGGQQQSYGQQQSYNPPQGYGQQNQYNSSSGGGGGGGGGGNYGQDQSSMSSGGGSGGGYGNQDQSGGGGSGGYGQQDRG

Substance “FUS^N-Citrine-Cry2olig-VioC (from UniProt P35637 1-214; Q96524 1-498; Q9S3U9 1-429)” yielded a deoxyviolacein production under continuous blue light relative to dark (HPLC, strain YNS34) in assay [1] of 2 fold.
Turning to “FUS^N-FusionRed-PixD-VioC (from UniProt Q9S3U9 1-429)”, in the assay with FUS^N-Citrine-PixE-VioE, the change in deoxyviolacein production from light to dark (HPLC, strain YEZ257, [Zeo]max 1,200 mg/L) turned out to be 6.1 fold and the change in deoxyviolacein-to-PDV ratio from light to dark (HPLC, strain YEZ257, [Zeo]max 1,200 mg/L) is 18.4 fold.
“VioC-FUS^N-Citrine-Cry2olig (from UniProt Q9S3U9 1-429; P35637 1-214; Q96524 1-498)” yielded a deoxyviolacein production under continuous blue light relative to dark (HPLC, strain YNS36) in assay [1] of 2 fold.

Values taken from patent US20210062165A1.
